Data: patent US20130064834A1 (published 2013)

Columns and labels:
[1] = molecular target: T1, human PCSK7, myc-myc-his tagged (human, UniProt Q16549 142-667, limits assumed); assay: SPR, mAb captured on anti-hFc, 25C
T1 construct: also called hPCSK7-mmh; hPCSK7
T1 sequence: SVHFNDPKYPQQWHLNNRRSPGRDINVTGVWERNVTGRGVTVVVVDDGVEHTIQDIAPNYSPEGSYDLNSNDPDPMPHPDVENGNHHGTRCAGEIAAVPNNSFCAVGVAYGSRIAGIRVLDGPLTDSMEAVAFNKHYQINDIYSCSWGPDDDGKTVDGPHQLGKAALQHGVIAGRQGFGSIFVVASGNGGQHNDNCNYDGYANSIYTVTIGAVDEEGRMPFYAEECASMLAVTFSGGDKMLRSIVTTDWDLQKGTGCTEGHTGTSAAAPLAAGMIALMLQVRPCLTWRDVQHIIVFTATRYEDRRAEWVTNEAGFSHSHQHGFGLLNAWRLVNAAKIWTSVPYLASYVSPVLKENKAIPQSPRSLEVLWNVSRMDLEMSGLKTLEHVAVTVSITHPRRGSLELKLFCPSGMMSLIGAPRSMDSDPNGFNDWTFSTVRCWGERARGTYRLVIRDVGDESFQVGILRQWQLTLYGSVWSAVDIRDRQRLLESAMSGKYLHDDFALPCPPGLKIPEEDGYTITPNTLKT

[2] = molecular target: T2, human PCSK1, myc-myc-his tagged (human, UniProt P29120 111-753, limits assumed); assay: SPR, mAb captured on anti-hFc, 25C
T2 construct: also called hPCSK1-mmh; hPCSK1
T2 sequence: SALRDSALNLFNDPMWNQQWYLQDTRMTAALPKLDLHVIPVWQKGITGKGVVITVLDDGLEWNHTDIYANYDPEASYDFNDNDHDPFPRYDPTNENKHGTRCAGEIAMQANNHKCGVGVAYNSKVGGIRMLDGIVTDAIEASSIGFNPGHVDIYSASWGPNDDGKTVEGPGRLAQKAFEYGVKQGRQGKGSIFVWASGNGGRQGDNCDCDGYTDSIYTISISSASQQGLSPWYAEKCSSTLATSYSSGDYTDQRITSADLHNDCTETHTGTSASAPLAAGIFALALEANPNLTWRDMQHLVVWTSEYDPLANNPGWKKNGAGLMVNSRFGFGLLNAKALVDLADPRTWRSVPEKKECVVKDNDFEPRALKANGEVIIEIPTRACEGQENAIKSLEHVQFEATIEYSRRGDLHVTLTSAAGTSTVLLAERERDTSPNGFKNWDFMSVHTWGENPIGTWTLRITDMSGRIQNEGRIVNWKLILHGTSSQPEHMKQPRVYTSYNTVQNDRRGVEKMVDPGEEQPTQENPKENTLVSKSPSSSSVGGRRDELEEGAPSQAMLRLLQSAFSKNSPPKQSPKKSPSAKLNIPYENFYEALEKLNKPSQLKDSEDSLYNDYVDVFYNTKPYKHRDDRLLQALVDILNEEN

Human PCSK9-myc-myc-his [3] = molecular target: T3, Human PCSK9-myc-myc-his (human, UniProt Q8NBP7 31-692); assay: SPR, mAb captured, 25C
T3 construct: also called hPCSK9-mmh; hPCSK9
Method: (§1) Each selected antibody was captured at a flowrate of 2 μl/min for 6 min on a goat anti-human IgG polyclonal antibody surface created through direct chemical coupling to a BIACORE™ chip to form a captured antibody surface.

[4] = molecular target: T4, rat (Rattus norvegicus) PCSK9, myc-myc-his tagged (rat (Rattus norvegicus), UniProt P59996 31-691); assay: SPR, mAb amine-coupled, 37C, pH 5.5
T4 construct: also called rPCSK9-mmh; rPCSK9
From the text: (§2) Briefly, mAbs were immobilized onto BIACORE™ CM5 sensor chips via amine coupling.

[5] = molecular target: T5, mouse PCSK9, myc-myc-his tagged (mouse, UniProt Q80W65 35-694); assay: SPR, mAb amine-coupled, 37C, pH 5.5
T5 construct: also called mPCSK9-mmh; mPCSK9
From the text: as §2

Human PCSK9-myc-myc-his [6] = molecular target: T3, Human PCSK9-myc-myc-his; assay: SPR, mAb captured, 37C
Method: as §1

[7] = molecular target: T6, cynomolgus monkey (Macaca fascicularis) PCSK9, myc-myc-his tagged (cynomolgus monkey (Macaca fascicularis), UniProt A8T662 31-692 (Macaca nemestrina entry), limits assumed); assay: SPR, mAb captured on anti-hFc, 25C
T6 construct: also called mfPCSK9-mmh; mfPCSK9

[8] = molecular target: T7, his-tagged Syrian golden hamster (Mesocricetus auratus) PCSK9 (Syrian golden hamster (Mesocricetus …)); assay: SPR, mAb captured on anti-hFc, 25C
T7 construct: also called maPCSK9-h; maPCSK9
T7 chain: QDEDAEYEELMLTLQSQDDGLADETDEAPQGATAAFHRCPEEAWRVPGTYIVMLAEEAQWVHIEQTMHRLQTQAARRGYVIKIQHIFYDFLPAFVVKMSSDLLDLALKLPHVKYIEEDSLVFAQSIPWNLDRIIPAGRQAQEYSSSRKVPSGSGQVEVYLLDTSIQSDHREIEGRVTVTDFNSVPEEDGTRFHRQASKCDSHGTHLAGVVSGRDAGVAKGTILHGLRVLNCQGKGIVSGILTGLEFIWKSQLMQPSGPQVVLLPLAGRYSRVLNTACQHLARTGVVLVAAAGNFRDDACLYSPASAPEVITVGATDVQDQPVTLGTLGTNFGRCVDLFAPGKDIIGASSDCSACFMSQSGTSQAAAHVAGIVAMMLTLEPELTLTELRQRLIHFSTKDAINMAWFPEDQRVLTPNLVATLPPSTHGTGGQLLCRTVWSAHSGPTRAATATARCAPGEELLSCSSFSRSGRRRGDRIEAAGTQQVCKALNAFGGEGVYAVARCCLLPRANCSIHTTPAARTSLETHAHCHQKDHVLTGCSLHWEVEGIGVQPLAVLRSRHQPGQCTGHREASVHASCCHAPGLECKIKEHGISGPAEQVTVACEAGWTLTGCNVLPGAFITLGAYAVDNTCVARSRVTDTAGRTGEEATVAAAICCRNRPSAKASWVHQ

[9] = molecular target: T4, rat (Rattus norvegicus) PCSK9, …; assay: SPR, mAb captured on anti-hFc, 25C
[10] = molecular target: T8, tagged rhesus monkey (Macaca mulata) PCSK9 (rhesus monkey (Macaca mulata), UniProt A8T666 31-692); assay: SPR, mAb captured on anti-hFc, 25C
T8 construct: also called mmPCSK9-mmh; mmPCSK9

hPCSK9(D374Y)-mmh = molecular target: T9, hPCSK9(D374Y)-mmh (human, UniProt Q8NBP7 31-692); assay: SPR, mAb captured on anti-hFc, 25C
T9 construct: also called hPCSK(D374Y)-mmh

T4 sequence (P59996 31-691 limits assumed): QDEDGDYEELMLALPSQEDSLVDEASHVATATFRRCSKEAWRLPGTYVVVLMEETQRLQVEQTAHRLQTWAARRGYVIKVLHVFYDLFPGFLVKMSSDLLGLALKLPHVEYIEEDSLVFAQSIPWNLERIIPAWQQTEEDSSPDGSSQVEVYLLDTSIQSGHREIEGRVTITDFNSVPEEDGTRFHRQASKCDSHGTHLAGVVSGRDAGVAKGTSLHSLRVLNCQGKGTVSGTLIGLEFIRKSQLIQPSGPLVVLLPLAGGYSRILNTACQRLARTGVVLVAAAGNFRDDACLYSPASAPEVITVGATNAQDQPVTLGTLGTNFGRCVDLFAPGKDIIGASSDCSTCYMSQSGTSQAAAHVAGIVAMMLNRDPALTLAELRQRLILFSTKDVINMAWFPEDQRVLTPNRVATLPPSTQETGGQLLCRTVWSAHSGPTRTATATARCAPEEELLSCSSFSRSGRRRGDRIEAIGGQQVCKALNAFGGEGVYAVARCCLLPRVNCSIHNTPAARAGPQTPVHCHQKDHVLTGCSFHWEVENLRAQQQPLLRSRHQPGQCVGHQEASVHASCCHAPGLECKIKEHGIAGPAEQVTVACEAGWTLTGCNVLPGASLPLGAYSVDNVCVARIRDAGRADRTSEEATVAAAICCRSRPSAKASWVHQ
T6 sequence (A8T662 31-692 limits assumed): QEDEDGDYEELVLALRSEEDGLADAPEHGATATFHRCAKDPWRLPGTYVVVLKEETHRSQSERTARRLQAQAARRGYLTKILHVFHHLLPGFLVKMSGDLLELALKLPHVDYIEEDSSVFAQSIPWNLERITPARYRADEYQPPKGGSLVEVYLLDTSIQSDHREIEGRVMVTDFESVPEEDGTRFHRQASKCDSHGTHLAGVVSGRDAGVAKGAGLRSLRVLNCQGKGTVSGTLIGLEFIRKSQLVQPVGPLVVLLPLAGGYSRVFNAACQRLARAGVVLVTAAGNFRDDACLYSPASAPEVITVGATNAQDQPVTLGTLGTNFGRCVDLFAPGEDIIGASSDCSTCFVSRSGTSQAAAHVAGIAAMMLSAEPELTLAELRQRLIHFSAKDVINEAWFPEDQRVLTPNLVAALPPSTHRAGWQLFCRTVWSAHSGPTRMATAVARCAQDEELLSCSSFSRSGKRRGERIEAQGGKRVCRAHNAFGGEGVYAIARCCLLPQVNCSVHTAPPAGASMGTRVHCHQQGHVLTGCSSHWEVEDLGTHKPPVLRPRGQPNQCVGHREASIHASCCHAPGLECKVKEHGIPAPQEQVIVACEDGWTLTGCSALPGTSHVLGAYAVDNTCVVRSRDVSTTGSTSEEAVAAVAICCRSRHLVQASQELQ
T8 sequence (A8T666 31-692 limits assumed): as the sequence (A8T662 31-692 limits assumed) above, with A607P, E639K counted along it

B1: H1M300N (antibody, V domains shown)
VH: EMQLVESGGGLVQPGGSLRLSCAASGFTFSSHWMKWVRQAPGKGLEWVANINQDGSEKYYVDSVKGRFTISRDNAKNSLFLQMNSLRAEDTAVYYCARDIVLMVYDMDYYYYGMDVWGQGTTVTVSS
VL: not shown
notes: Fully human version made in CHO cells
[1]
  binding result: no binding (tested: 100 nM)
[2]
  binding result: no binding (tested: 100 nM)

B2: H1H316P (antibody, V domains shown)
VH: EVQLVESGGGLVQPGGSLRLSCAASGFTFNNYAMNWVRQAPGKGLDWVSTISGSGGTTNYADSVKGRFIISRDSSKHTLYLQMNSLRAEDTAVYYCAKDSNWGNFDLWGRGTLVTVSS
VL: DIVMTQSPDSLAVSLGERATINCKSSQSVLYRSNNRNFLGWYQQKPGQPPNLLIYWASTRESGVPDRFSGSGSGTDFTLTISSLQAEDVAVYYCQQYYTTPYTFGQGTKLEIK
notes: Fully human mAb made in CHO cells; also called mAb316P
Human PCSK9-myc-myc-his [3]
  Kd: 0.377 nM
  T1/2: 42 min
[4]
  Kd: 0.399 nM
  T1/2: 1 min
[5]
  Kd: 13.6 nM
  T1/2: 3 min
Human PCSK9-myc-myc-his [6]
  Kd: 1.08 nM
  T1/2: 11 min
[7]
  Kd: 0.52 nM
  T1/2: 60 min
[8]
  Kd: 6.81 nM
  T1/2: 5 min
[9]
  Kd: 14.5 nM
  T1/2: 2 min
[10]
  Kd: 0.55 nM
  T1/2: 92 min
hPCSK9(D374Y)-mmh
  Kd: 1.69 nM
  T1/2: 15 min
